Test results taken from US6660837B1, “Modified protein derived from protein kinase N” (Kirin Beer Kabushiki Kaisha, priority 1995, dated 2003).
Values belong to the substance of their own block, whether it stands above or below them. Ends that are not written are not given here.

Experiments:
full-length human PKN = full-length human PKN (Homo sapiens, UniProt Q16512); assay: Co-immunoprecipitation of PKN with HA-tagged α-actinin in COS7 cells; assay type: cell-based
[1] = molecular target: T1, in vitro translated PKNN2 (Homo sapiens, UniProt Q16512); assay: In vitro binding of GST-HuActSkl fragments to PKNN2; conditions: resistant to 0.5% Triton X-100/0.5 M NaCl wash
T1 construct: made in house; host or cells: in vitro translation in rabbit reticulocyte lysate (Promega)
Protocol: In vitro transcription for the N-terminal region of PKN (the amino acid sequence 1-474, this region being designated as PKNN2 (Example 8)) was performed as described in Example 8. For in vitro translation, cRNAs were translated in rabbit reticulocyte lysate (Promega) in the presence of [^35S] methionine as described in Example 8.
(§1) For in vitro binding experiment, 2 μl of in vitro translated PKNN2 was mixed with 5 μg of each GST-α-actinin fusion protein or with 25 μg of GST alone in 400 μl of GST binding buffer (20 mM Tris/HCl at pH 7.5, 0.5 mM DTT, 150 mM NaCl, 0.05% Triton-X100, 1 mM EDTA, 1 μg/ml leupeptin) and incubated for 1 hr at 4° C. After addition of 25 μl of glutathione-Sepharose 4B pretreated with 10 mg/ml of E. coli extract to block nonspecific binding, the binding reaction was continued for additional 30 min at 4° C. The glutathione-Sepharose 4B was then washed four times in GST washing buffer (20 mM Tris/HCl at pH 7.5, 0.5 mM DTT, 1 mM EDTA, 1 μg/ml leupeptin) containing 0.5 M NaCl and 0.5% Triton X-100, and further washed with GST washing buffer. Bound proteins were eluted with GST elution buffer (100 mM Tris/HCl at pH 7.5, 10 mM glutathione, 120 mM NaCl, 1 mM EDTA, 0.5 mM DTT, 1 μg/ml leupeptin) and were subjected to SDS-PAGE. The binding was visualized and quantitated by an imaging analyzer (FUJI BAS1000).

[2] = test system: repeat 20 of rat α-spectrin; assay: In vitro binding of PKN to α-spectrin repeat 20
Protocol: cDNAs encoding the spectrin-like repeat 3 (the amino acid sequence 479-600) and EF-hand-like region (the amino acid sequence 712-843) of HuActNm were amplified by PCR from human brain cDNA library, and were ligated to pGEX4T vector. cDNAs encoding the spectrin repeat 20 and EF-hand-like region of α-actinin were amplified by PCR from rat brain cDNA library, and were ligated to pGEX4T vector. Expression and purification of GST or GST fusion proteins were performed according to the manufacturer's instruction (Phamacia Biotech Inc.). The eluate from glutathione-Sepharose 4B (Pharmacia Biotech Inc.) was dialyzed overnight against 10 mM Tris/HCl at pH 7.5 containing 1 mM EDTA, 1 mM DTT, and 0.1 μg/ml leupeptin.
Since PKN bound to the repeat 3 of α-actinin, the present inventors have examined whether PKN can bind to the repeat 20 of α-spectrin.

[3] = test system: GST-NF (each subunit) fusion proteins; assay: In vitro binding of in vitro translated PKN to GST-NF (each subunit); conditions: GST pull-down
Source text: For in vitro transcription, truncated human PKN was made as follows; Expression vector pPKNN2 for N-terminal region of PKN (the amino acid sequence 1-474 in SEQ ID NO: 1, this region was designated as “PKNN2”) was made by digesting phPKN-H4 (a plasmid containing human PKN cDNA in pBluescript II SK (Mukai, H. & Ono, Y., Biochem. Biophys. Res. Commun. 199, 897-904 (1994)) with Bst EII, and filling in the ends with T4 DNA polymerase, and self-legation. This removed the original amino acid sequences C-terminal downstream of the BstEII site (1425 nucleotides from initiating ATG codon), and a stop codon was created in the plasmid sequence. Fragment coding for the amino acid sequence 614-942 in SEQ ID NO: 1, (This region was designated as “PKNC2”) containing the conserved catalytic domain of human PKN was made by PCR amplification. Expression vector pPKNC2 was made by subcloning this fragment into pRc/CMV (Invitfrogen Corp.). These plasmids were linealized by cutting with XbaI, and CRNA was transcribed using T7 RNA polymerase. For NFL, pBL (Nakagawa, T. et al., J. Cell. Biol. 129, 411-429 (1995)) was linealized by cutting with HindIII, and CRNA was transcribed using T3 RNA polymerase. For in vitro translation, these cRNAs were translated in rabbit reticulocyte lysate (Promega) in the presence of [^35S] methionine. […]

[4] = molecular target: T2, spectrin-like repeat 3 domain of HuActNm (Homo sapiens, UniProt P12814); assay: In vitro binding of PKNN2 to HuActNm spectrin-like repeat 3
T2 construct: made in house; host or cells: E. coli
Protocol: as §1
(§2) Accordingly, the present inventors have studied whether the in vitro translated PKNN2 could bind to the region of HuActNm corresponding to the PKN-binding site of HuActSkl in the same manner as in Example 25. The HuActNm fragment used in the experiment was prepared according to the following procedure. […]

[5] = molecular target: T3, EF-hand-like domain of HuActNm (Homo sapiens, UniProt P12814); assay: In vitro binding of PKNN2 to HuActNm EF-hand-like domain
T3 construct: made in house; host or cells: E. coli (GST fusion); rabbit reticulocyte lysate (PKNN2)
Protocol: as §1, §2

RhoA = molecular target: T4, RhoA (Homo sapiens, UniProt P61586); assay: Yeast two-hybrid, region of PKN with RhoA; assay type: binding; conditions: data not shown
T4 construct: expressed in transfected cells; host or cells: yeast (two-hybrid system)
Source text: (§3) The two-hybrid methods was employed to identify the region of PKN that interacted with HuActSkl , and this region was compared with the binding site for RhoA, which binds to PKN, in vitro and in vivo. […] This region corresponds to the second leucine zipperlike sequence and the N-terminal region adjacent thereto, which is conserved through evolution in vertebrates (Mukai, H., et al., Biochim. Biophys. Acta 1261, 296-300 (1995)). Thus α-actinin binds to the region distinct from that which binds to Rho.

α-actinin (HuActSkl) = assay: Yeast two-hybrid, regions of PKN with HuActSkl; assay type: binding, human
Protocol: Schemes of the fusion constructs for human PKN, human skeletal muscle type α-actinin (HuActSkl , designated in (Beggs, A., et al., J. Biol. Chem. 267, 9281-9288 (1992)) and non-skeletal muscle type α-actinin (HuActNm, designated in (Beggs, A., et al., J. Biol. Chem. 267, 9281-9288 (1992)) used in this study are shown in FIGS. 41 and 42. Screening of proteins, which bind to the N-terminal region of human PKN (the amino acid sequence 1-540, this region being designated as “PKNNl”), was performed as described in Example 6. Primary positive clones were recovered and retransfected into the original yeast host strain YGH1 (a, ura3-52, his3-200, ade2-101, lys2-801, trpl-901, leu2-3, Can^r, gal4-542, gal80-538, LYS2::gal1uas-gal1tala-HIS3, URA3::gall-lacZ) in combination with the Gal4bd-PKN or the Gal4bd-p53 tumor suppresser. Plasmids that activated marker expression only in the presence of PKN were analyzed further.
as §3, with “Thus α-actinin binds to the region distinct from that which binds to Rho.” left out

T3 sequence (P12814 712-843): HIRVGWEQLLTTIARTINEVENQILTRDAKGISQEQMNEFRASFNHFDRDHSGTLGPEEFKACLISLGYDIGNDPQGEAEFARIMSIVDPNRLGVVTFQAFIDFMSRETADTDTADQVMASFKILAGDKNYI
T1 sequence (Q16512 1-474): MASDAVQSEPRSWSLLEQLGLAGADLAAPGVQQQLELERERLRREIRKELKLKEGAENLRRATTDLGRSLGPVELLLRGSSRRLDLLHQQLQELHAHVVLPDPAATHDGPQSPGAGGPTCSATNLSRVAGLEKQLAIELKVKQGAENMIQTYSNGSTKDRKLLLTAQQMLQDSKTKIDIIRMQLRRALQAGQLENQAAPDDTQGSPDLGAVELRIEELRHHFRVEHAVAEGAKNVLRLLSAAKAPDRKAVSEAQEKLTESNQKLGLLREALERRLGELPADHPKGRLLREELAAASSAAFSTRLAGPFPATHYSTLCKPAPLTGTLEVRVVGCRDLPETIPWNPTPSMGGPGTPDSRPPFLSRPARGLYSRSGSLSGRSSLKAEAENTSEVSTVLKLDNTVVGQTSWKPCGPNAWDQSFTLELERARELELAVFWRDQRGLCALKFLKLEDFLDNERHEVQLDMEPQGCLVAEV
T2 sequence (P12814 479-600): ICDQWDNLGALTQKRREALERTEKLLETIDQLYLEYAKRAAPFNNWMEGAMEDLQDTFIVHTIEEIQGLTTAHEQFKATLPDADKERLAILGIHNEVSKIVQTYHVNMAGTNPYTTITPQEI
T4 sequence (P61586 whole entry): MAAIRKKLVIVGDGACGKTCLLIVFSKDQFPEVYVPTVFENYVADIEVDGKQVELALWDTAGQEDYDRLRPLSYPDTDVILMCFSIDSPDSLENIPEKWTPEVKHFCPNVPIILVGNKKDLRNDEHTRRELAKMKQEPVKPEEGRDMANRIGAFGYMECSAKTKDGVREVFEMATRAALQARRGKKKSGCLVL
Sequence of α-actinin (HuActSkl) (P35609 344-894 limits assumed): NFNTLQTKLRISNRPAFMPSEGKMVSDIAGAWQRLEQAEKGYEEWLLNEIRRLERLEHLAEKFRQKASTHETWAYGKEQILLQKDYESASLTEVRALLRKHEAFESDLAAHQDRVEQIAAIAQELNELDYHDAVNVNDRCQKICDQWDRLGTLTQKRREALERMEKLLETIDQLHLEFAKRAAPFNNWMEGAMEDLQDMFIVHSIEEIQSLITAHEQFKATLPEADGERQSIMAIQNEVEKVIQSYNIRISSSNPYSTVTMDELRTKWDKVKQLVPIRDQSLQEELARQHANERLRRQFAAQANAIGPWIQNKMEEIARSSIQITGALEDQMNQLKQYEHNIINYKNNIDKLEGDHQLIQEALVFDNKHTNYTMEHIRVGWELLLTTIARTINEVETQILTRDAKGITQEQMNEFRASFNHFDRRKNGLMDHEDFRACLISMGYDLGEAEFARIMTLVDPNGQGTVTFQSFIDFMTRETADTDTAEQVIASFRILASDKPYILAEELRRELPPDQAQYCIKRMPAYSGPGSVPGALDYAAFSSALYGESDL
Sequence of full-length human PKN (P35609 333-894): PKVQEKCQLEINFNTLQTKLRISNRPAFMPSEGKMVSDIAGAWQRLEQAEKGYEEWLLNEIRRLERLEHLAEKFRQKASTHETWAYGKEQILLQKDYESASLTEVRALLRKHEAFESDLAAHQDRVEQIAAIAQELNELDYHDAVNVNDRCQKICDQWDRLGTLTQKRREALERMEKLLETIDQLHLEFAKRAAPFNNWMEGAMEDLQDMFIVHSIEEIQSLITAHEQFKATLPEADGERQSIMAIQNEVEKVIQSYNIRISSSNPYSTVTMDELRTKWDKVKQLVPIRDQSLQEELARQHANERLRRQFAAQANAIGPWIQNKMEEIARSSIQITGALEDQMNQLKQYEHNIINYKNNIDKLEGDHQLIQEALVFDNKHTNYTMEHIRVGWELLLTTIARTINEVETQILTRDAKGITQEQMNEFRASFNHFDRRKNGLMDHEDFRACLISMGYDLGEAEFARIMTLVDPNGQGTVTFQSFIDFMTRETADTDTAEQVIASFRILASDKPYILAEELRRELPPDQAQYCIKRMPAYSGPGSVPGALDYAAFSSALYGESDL
Sequence of full-length human PKN (Q16512 whole entry, the tested form may be a part): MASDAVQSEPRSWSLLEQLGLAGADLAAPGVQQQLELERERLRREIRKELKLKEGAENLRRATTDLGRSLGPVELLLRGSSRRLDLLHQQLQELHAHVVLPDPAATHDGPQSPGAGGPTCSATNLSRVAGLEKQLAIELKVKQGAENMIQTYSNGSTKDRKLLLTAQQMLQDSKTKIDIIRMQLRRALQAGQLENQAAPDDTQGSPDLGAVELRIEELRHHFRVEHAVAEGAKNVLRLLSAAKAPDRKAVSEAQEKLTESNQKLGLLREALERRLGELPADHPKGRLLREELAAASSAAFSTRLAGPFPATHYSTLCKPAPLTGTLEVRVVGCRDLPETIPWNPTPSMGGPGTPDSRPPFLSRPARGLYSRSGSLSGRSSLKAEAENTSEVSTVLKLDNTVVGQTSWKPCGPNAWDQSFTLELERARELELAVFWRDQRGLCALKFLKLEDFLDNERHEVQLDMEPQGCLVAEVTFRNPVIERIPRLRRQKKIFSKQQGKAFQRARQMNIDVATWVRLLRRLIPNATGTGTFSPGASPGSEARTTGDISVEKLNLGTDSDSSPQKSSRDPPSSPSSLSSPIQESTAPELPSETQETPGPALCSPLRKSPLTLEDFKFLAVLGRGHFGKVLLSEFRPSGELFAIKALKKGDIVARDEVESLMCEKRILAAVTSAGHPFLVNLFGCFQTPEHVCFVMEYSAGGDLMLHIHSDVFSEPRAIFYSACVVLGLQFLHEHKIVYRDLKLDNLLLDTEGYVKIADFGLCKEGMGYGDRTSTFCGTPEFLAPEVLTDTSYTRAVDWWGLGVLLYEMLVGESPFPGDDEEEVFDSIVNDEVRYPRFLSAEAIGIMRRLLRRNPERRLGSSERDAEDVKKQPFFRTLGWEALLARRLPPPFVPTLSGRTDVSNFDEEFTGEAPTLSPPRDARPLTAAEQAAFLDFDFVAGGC

Substance: HA-tagged α-actinin: influenza HA epitope fused to the amino acid sequence 333-894 of HuActSkl (clone#4)
co-immunoprecipitation of PKN with anti-HA antibody (full-length human PKN): contained substantially immunoreactive PKN

Substance: HuActSkl (837-894): human skeletal muscle type α-actinin fragment, GST fusion (ILASDKPYILAEELRRELPPDQAQYCIKRMPAYSGPGSVPGALDYAAFSSALYGESDL; also: GST fusion)
binding of in vitro translated PKNN2 to the fragment [1]: not

Substance: PKN: in vitro translated PKN (PKNN2, 1-474) in the binding assays of b333 and b480
in vitro binding to repeat 20 of rat α-spectrin [2]: not detected
binding to each subunit of NF at the head-rod domain in vitro [3]: directly bound

More lines, main results first:

binding to spectrin-like repeat 3 domain of HuActNm [4]: could bind
binding to EF-hand-like domain of HuActNm ([5]; absence of Ca^2+): not detected
binding to EF-hand-like region of HuActNm ([5]; presence of 1 mM Ca^2+): could effectively bind
Substance: PKNN2: N-terminal region of PKN, amino acid sequence 1-474 in SEQ ID NO: 1, in vitro translated

interaction with RhoA in two-hybrid system (RhoA): no interaction was detected
Substance: amino acid 136-189 of PKN: region of PKN: second leucine zipper-like sequence and adjacent N-terminal region
interaction with α-actinin in two-hybrid system (α-actinin (HuActSkl)): strongly interacted
